± gives the uncertainty stated by the source.

The nature of this series: amyloid nucleation score (Sup35N fusion, yeast selection) (log enrichment); library NNK2; higher = more nucleation; inactive = no reads after selection. Put shortly: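 The nucleation score is the log enrichment of output over input reads, calculated with DiMSum and centred on the mode score of non-aggregating sequences. Sequences with under 100 input reads were excluded. Reads came from Illumina sequencing of plasmid inserts from psi-negative yeast expressing Sup35N fused to peptides of 20 random codons, induced 24 hours with 100 μM copper sulfate and grown 7 days at 30°C without adenine and uracil.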
With CKIRNDSSSSRLVIHILDTA, the amyloid nucleation score came out at 6.357 ± 0.059.
Turning to CKPRNLLLLSPKPIVLCKDF, the amyloid nucleation score was -1.21 ± 0.79.
As for CKSQLHLRVRTRKNVCVVIS, the figure is 0.13 ± 0.62; as for CLAVSSDVDSQGKGIRIYIL, -1.24 ± 1.1.
Under CLDVLLDKGSADIYFRQSSN stands -1.06 ± 0.61.
As for CLFSTCTRCCLSNGFNAITR, the entry is “inactive”; as for CLFVTVGFCICCLFFLWFCL, 5 ± 0.1.
CLGGNHYHPSSTVTEQRYLT showed an amyloid nucleation score of 0.859 ± 0.48.
As for CLGNHIDSCVVFLTDAESSS, the figure is -0.484 ± 0.65; as for CLNRNGKEVTWVGLIC, 2.46 ± 0.069.
Under CLQVAKDADFCIKAVEERGW stands 2.42 ± 0.19; under CLVFTRVWYCAIYRTSFKET, -0.474 ± 0.38; under CLWVRGSCC, -1.04 ± 0.55.
Turning to CLWVSMDGHSFWRKFNAVI, the amyloid nucleation score entry is “inactive”.
Under CLYLACIEGWLP stands 3.24 ± 0.056; under CLYPLSVDVVSFHYCTTCCE, 0.141 ± 0.33.
Take CLYRTLWSCLWSGMMIFCTD: the amyloid nucleation score is -1.77 ± 1.
For CMGFSSLFFQGWVVIDCLW, the amyloid nucleation score was -1.1 ± 0.76.
On to CMLDA, for which the amyloid nucleation score was -0.555 ± 0.76.
Under CMQLSYSYSLTFEGQCHLVG stands 4.27 ± 0.088; under CNGLAQKIILSTRRLLLVPG, 0.537 ± 0.34.
Substance CNIVNFMWAGENFR came in with an amyloid nucleation score of 5.48 ± 0.086.
As for CNKTLLFIFPVLGQQDGDFG, the figure is 4.417 ± 0.044.
As for CNLWSDLGWYYQAMWKIRRD, the entry is “inactive”.
As for CNMFCFDCCLWFGGMRISST, the amyloid nucleation score amounted to 8.315 ± 0.042.
As for CNRESEWIECVRGFLEYANG, the figure is 1.44 ± 0.11.
Under CNRMGFHMFDCF stands “inactive”; under CNRQAAMKAPSETCDVVACF, 4.52 ± 0.083.
Substance CNSCSP showed an amyloid nucleation score of 0.811 ± 0.67.
As for CNSRCEDWPWIERTPG, the figure is 0.571 ± 0.47.
On to CNVLSRRNGKLRACFS, for which the amyloid nucleation score turned out to be 0.732 ± 0.4.
Substance CNVTIIYVPYGEWTTFYLRL registered an amyloid nucleation score of 7.45 ± 0.082.
As for CNVWDVSGDTFVTYGKDDRG, the figure is 0.275 ± 0.25.
For the substance CNWGRTFCRRVSVPVRRSDL, the amyloid nucleation score was -0.074 ± 1.1.
Under CPIDYGTSVNHDNKVSILYL stands 0.534 ± 0.51.
Under CPSLRGVVVRSLSTGSSDAR stands 0.163 ± 0.56; under CQISGCYWV, 5.28 ± 0.074.
With CRGTIWIAYSRYYYYRMNDF, the amyloid nucleation score result is “inactive”.
Under CRLADFAPFRHCFFSHDCSR stands 3.57 ± 0.046; under CRMMI, 0.591 ± 0.36; under CRRHVMFYTCMLE, 4.27 ± 0.064.
Under CRRTFDSLIS stands -0.74 ± 0.78.
Under CRYPFTPACTYMNLG stands -0.114 ± 1; under CSCQAVLLLASSRPAIKVRC, 1.86 ± 0.31; under CSFSYGMYSK, 0.401 ± 0.23.
In the case of CSMVNDLSFNIEARMQSWNS, the amyloid nucleation score was 0.028 ± 0.79.
Under CSQIRFGRADRLNETSIKLV stands 0.333 ± 0.54; under CSRKDYSYRVMKFVFCIYGL, 6.45 ± 0.061; under CSSDSIYSSWWFSLYNITGE, “inactive”.
As for CSSEDITYAWQWARWLRS, the figure is 0.494 ± 0.41.
As for CSSFKSLIRLGTLNRRNRNE, the figure is 3.68 ± 0.059.
With CSSNCFYEAFVLGYKTHARE, the amyloid nucleation score came to 0.295 ± 1.
Under CSSTAVFTRLIKADIWVRSA stands -1.35 ± 0.36; under CSVVGWE, 0.671 ± 0.66.
As for CSVWRDLVAICLRD, the amyloid nucleation score entry was “inactive”.
Under CSYCFCCVH stands 8.29 ± 0.065.
Under CTCQVFPHNALCQGSWVLPV stands 1.07 ± 0.27.
Under CTDQRGLSIIVLGYNSHSMR stands 5.682 ± 0.054.
For CTRRDFFGQTTAHVSVWCTG, the amyloid nucleation score worked out at 4.33 ± 0.081.
Regarding CTRRRM, the amyloid nucleation score stood at 1.63 ± 0.15.
Consider CTSVKQNDLKGSLIN, for which the amyloid nucleation score result was “inactive”.
As for CTVCITKGWLMHVWYYAYRW, the figure is 0.902 ± 0.22; as for CVACLDM, “inactive”; as for CVGDAALWWVVFIYGEHSRV, 0.022 ± 0.41.
Under CVGGWWPRQRLFCIWFIIAV stands 1.72 ± 0.31; under CVKRRWPEVIRVHVGGYSFN, 0.455 ± 0.5.
The substance CVLSKEI came in with an amyloid nucleation score of 0.387 ± 0.3.
Under CVLTRVFETTSCVSIHLF stands -1.64 ± 0.79; under CVSDCD, 3.45 ± 0.14.
Under CVSEARRIE stands -0.36 ± 0.35.
Under CVSSRDRG stands 0.439 ± 0.27.
For CVSVPFYQVCFVGPKMEPLG, the amyloid nucleation score came to 0.636 ± 0.18.
As for CVSWRYFMFPCLVSLEMSSS, the figure is 3.71 ± 0.085.
Under CVTDATVKNYI stands -1.42 ± 0.78; under CVVRFRGPYKFCWPQDRSYS, 0.247 ± 0.8.
As for CVYPGEMLWRI, the figure is -0.609 ± 0.76; as for CWPCRMMKLVREESAVYTGG, 0.062 ± 0.34.
Take CWRFVSCNTNYNWTMQGFYY: the amyloid nucleation score was -1.38 ± 1.1.
As for CWSPLGTFSLLALMGASKTL, the figure is 0.103 ± 0.42; as for CWVRISDLCLYKFVGVPMSV, 0.312 ± 0.8.
Regarding CYFSDPVHLENPSINSISFW, the amyloid nucleation score result is “inactive”.
Take CYMTFYVMLTLDRTQSHSGH: the amyloid nucleation score worked out at 7.411 ± 0.051.
CYMYDSVTNWTYWLSG registered an amyloid nucleation score of -0.679 ± 0.26.
As for CYSILFSLKQIDRLLITLPR, the figure is -1.04 ± 0.5; as for CYSMSRVVSNGEKHYD, 0.675 ± 0.4; as for CYSYWPRSPFIWY, -0.978 ± 1.1.
Under DACYGITLDCCETLARSMSC stands -0.382 ± 0.76; under DADIRQ, 0.764 ± 0.47; under DANTRGHSCRNCM, 0.195 ± 0.76.
As for DAWYMDFLSCACWIHWR, the figure is 0.871 ± 0.45.
As for DCRDLFLKKVWGYVGRLCEV, the amyloid nucleation score result was “inactive”.
As for DCRFQIHVCDAYDK, the entry is “inactive”.
As for DCSSVISKSSLIAVLCFHTN, the figure is 5.14 ± 0.058; as for DDASKKLYS, 0.967 ± 0.15.
As for DDCVPQWEYK, the figure is 0.695 ± 0.42.
Substance DDFNERSSLHVVYDRF had an amyloid nucleation score of -0.901 ± 1.
DDGMCRRYCLGRKYTMGIEL: the amyloid nucleation score was determined as 1.78 ± 0.14.
As for DDIIISPVPDHE, the amyloid nucleation score entry is “inactive”.
As for DDSTFKSRFVLGIPAICLGS, the figure is -1.37 ± 0.4.
With DDVYNSGYKELIRSQ, the amyloid nucleation score was determined as 0.348 ± 0.25.
As for DEECTEPTWIGDEFDPLDIE, the entry is “inactive”; as for DEIQGLNRRYLPRG, 0.936 ± 0.52; as for DESSSRDETCGVFTHLVCVV, -0.249 ± 0.28.

These data come from the supplement of paper PMC12042874.
